Laboratory results: article PMC12881670, “Investigation into ligand selectivity and bias at the formyl peptide receptor family” (The Journal of Pharmacology and Experimental Therapeutics, 2025)
Where no end group is shown, it is not given here. The star is where a group is joined. For = O=C*

Columns and labels:
[1] = biological target: T1, FLAG-tagged mouse Fpr1 (Mm_Fpr1) (mouse, UniProt P33766 1-364)
T1 sequence (looked up): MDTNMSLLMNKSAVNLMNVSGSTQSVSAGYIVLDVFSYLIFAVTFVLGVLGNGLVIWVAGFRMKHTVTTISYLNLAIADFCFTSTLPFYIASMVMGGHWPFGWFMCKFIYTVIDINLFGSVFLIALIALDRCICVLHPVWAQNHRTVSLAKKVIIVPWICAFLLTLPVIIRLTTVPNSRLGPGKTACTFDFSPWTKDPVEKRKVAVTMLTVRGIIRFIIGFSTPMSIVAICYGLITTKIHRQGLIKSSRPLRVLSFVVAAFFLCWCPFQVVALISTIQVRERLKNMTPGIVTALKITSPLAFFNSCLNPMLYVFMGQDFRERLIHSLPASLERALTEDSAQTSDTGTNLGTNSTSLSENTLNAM

[2] = biological target: T2, FLAG-tagged mouse Fpr2 (Mm_Fpr2) (mouse, UniProt O88536 1-351)
T2 sequence (looked up): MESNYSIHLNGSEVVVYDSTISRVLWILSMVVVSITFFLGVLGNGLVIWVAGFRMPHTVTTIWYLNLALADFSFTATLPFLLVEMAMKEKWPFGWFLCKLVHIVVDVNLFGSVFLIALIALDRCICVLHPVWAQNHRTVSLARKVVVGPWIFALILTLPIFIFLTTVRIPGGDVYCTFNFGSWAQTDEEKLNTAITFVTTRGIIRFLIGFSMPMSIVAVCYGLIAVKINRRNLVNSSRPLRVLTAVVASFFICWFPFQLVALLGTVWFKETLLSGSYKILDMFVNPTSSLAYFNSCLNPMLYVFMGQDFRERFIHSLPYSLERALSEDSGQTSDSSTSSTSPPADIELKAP

[3] = biological target: T3, FLAG-tagged human FPR1 (Hs_FPR1) (human, UniProt P21462 1-350)
T3 sequence (looked up): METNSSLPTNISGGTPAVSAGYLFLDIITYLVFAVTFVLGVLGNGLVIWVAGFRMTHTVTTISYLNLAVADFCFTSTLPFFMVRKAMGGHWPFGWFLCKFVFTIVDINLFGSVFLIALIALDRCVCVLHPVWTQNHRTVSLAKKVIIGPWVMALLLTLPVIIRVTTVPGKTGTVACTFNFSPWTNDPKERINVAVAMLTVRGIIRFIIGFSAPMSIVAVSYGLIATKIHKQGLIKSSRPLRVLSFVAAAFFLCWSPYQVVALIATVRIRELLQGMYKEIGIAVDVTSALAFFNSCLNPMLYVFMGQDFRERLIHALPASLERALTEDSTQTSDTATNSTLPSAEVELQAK

[4] = biological target: T4, FLAG-tagged human FPR2 (Hs_FPR2) (human, UniProt P25090 1-351)
T4 sequence (looked up): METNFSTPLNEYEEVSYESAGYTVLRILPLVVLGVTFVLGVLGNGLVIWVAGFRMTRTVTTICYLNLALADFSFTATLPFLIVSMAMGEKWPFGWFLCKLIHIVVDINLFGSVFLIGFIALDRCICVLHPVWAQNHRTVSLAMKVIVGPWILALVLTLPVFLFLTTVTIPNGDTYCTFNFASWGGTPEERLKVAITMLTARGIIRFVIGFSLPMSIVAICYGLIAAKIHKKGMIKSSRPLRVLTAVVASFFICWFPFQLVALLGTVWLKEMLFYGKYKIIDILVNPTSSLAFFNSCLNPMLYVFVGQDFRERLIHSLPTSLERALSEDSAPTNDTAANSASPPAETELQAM

[5] = biological target: T1, FLAG-tagged mouse Fpr1 (Mm_Fpr1); remark: listed apart in the source
[6] = biological target: T2, FLAG-tagged mouse Fpr2 (Mm_Fpr2); remark: listed apart in the source
[7] = biological target: T3, FLAG-tagged human FPR1 (Hs_FPR1); remark: listed apart in the source
[8] = biological target: T4, FLAG-tagged human FPR2 (Hs_FPR2); remark: listed apart in the source
[9] = biological target: T5, FLAG-Hs_FPR1 C-terminally fused to Renilla Luciferase 8 (human, UniProt P21462 1-350); assay: cell-based or functional assay
T5 sequence (looked up): T3 sequence (looked up)

[10] = biological target: T6, FLAG-Hs_FPR2 C-terminally fused to Renilla Luciferase 8 (human, UniProt P25090 1-351); assay: cell-based or functional assay
T6 sequence (looked up): T4 sequence (looked up)

[11] = biological target: T7, FLAG-Mm_Fpr1 C-terminally fused to Renilla Luciferase 8 (mouse, UniProt P33766 1-364); assay: cell-based or functional assay
T7 sequence (looked up): T1 sequence (looked up)

[12] = biological target: T8, FLAG-Mm_Fpr2 C-terminally fused to Renilla Luciferase 8 (mouse, UniProt O88536 1-351); assay: cell-based or functional assay
T8 sequence (looked up): T2 sequence (looked up)

[13] = biological target: T5, FLAG-Hs_FPR1 C-terminally fused to …; assay: cell-based or functional assay; remark: listed apart in the source
[14] = biological target: T6, FLAG-Hs_FPR2 C-terminally fused to …; assay: cell-based or functional assay; remark: listed apart in the source
[15] = biological target: T7, FLAG-Mm_Fpr1 C-terminally fused to …; assay: cell-based or functional assay; remark: listed apart in the source
[16] = biological target: T8, FLAG-Mm_Fpr2 C-terminally fused to …; assay: cell-based or functional assay; remark: listed apart in the source
[17] = biological target: T3, FLAG-tagged human FPR1 (Hs_FPR1); assay: flow cytometry on cells; competition binding: HEK293 cells stably expressing the receptor, lifted in PBS, on ice 90 min with 10 nM K(5/6-FAM)-WKYMVm and increasing unlabeled ligand; mean fluorescence of 5000 cells as % of that without competitor; One site-Fit logIC50

For-MLFK [fMet-Leu-Phe-Lys (fMLFK)] gave an ERK1/2 phosphorylation (Western blot): Emax (% of 1 μM WKYMVm) [1] of 140%, an ERK1/2 phosphorylation (Western blot): Log EC50 (M) [1] of -6.07 log M and an ERK1/2 phosphorylation (Western blot): Emax (% of 1 μM WKYMVm) [2] of 176%. It also gave an ERK1/2 phosphorylation (Western blot): Log EC50 (M) [2] of -5.91 log M, an ERK1/2 phosphorylation (Western blot): Emax (% of 1 μM WKYMVm) [3] of 112% and an ERK1/2 phosphorylation (Western blot): Log EC50 (M) [3] of -8.16 log M. It also gave an ERK1/2 phosphorylation (Western blot): Emax (% of 1 μM WKYMVm) [4] of 74.3%, an ERK1/2 phosphorylation (Western blot): Log EC50 (M) [4] of -5.88 log M and a receptor internalization (flow cytometry): Emax (% of 1 μM WKYMVm) [5] of 179%. The receptor internalization (flow cytometry): Log EC50 (M) [5] was -5.21 log M, the receptor internalization (flow cytometry): Emax (% of 1 μM WKYMVm) [6] was 81.6% and the receptor internalization (flow cytometry): Log EC50 (M) [6] was -4.94 log M. The receptor internalization (flow cytometry): Emax (% of 1 μM WKYMVm) [7] was 79.3%, the receptor internalization (flow cytometry): Log EC50 (M) [7] was -7.79 log M and the receptor internalization (flow cytometry): Emax (% of 1 μM WKYMVm) [8] was 99.9%. For the same binder, the receptor internalization (flow cytometry): Log EC50 (M) [8] was -4.48 log M, the “BRET of receptor-RLuc8 with Venus-mGsi: Emax (% of 1 μM WKYMVm)” value [9] was 104% and the “BRET of receptor-RLuc8 with Venus-mGsi: Log EC50 (M)” value (from here on “BRET … with Venus-mGsi: Log EC50 (M)”) [9] was -7.07 log M. For the same binder, the “BRET of receptor-RLuc8 with Venus-mGsi: Emax (% of 1 μM WKYMVm)” value [10] was 80.7%, the “BRET … with Venus-mGsi: Log EC50 (M)” value [10] was -4.57 log M and the “BRET of receptor-RLuc8 with Venus-mGsi: Emax (% of 1 μM WKYMVm)” value [11] was 62.9%. For the same binder, the “BRET … with Venus-mGsi: Log EC50 (M)” value [11] was -5.02 log M, the “BRET of receptor-RLuc8 with Venus-mGsi: Emax (% of 1 μM WKYMVm)” value [12] was 82.7% and the “BRET … with Venus-mGsi: Log EC50 (M)” value [12] was -4.52 log M. For the same binder, the “BRET of receptor-RLuc8 with Arrestin 3-YFP: Emax (% of 1 μM WKYMVm)” value [13] was 97.4%, the “BRET of receptor-RLuc8 with Arrestin 3-YFP: Log EC50 (M)” value [13] was -7.45 log M and the “BRET of receptor-RLuc8 with Arrestin 3-YFP: Emax (% of 1 μM WKYMVm)” value [14] was 92.7%. The “BRET of receptor-RLuc8 with Arrestin 3-YFP: Log EC50 (M)” value [14] was -4.44 log M, the “BRET of receptor-RLuc8 with Arrestin 3-YFP: Emax (% of 1 μM WKYMVm)” value [15] was 95.2% and the “BRET of receptor-RLuc8 with Arrestin 3-YFP: Log EC50 (M)” value [15] was -5.14 log M. For the same binder, the “BRET of receptor-RLuc8 with Arrestin 3-YFP: Emax (% of 1 μM WKYMVm)” value [16] was 72.5%, the “BRET of receptor-RLuc8 with Arrestin 3-YFP: Log EC50 (M)” value [16] was -4.79 log M and the Log IC50 [17] was -6.23 log M. It also gave a Max Comp (%) [17] of 63.3%.

For-MTPMRKINPLMKLIN [MCT-2 (Formyl-… from Cytochrome b)] gave an ERK1/2 phosphorylation (Western blot): Emax (% of 1 μM WKYMVm) [2] of 169%, an ERK1/2 phosphorylation (Western blot): Log EC50 (M) [2] of -6.96 log M and a receptor internalization (flow cytometry): Emax (% of 1 μM WKYMVm) [6] of 43.9%. The receptor internalization (flow cytometry): Log EC50 (M) [6] was -8.24 log M.
